Data published in US20030027246A1 (published 2003).
Read-outs that look alike come from different tables or passages of the source.

Key:
[1] = target: T1, membrane-bound HLA-A0201 molecule on T2 cells (human); experiment: T2 cell HLA-A0201 stabilisation, BB7.2 staining, flow cytometry
T1 construct: whole, on cells; also called human MHC class 1 molecule
Method: (§1) Thus, the detection of this specific epitope is indicative of stable membrane-bound HLA-A0201 molecules loaded with peptide.
(§2) T2 cells were propagated in Iscove's complete medium (Iscove's medium supplemented with 10% heat-inactivated bovine serum, 120.0 units per ml of penicillin G sodium, 120 μg per ml of streptomycin sulphate, and 0.35 mg per ml of L-glutamine). The ability of PSMA peptides (Table 1) to bind and stabilize surface HLA-A0201 molecules on T2 cells was determined utilizing a protocol documented in the art (Deng, Y. (1997) J Immunol 158:1507-1515). In essence, 0.5×10⁶ T2 cells were incubated with 125.0 μM of the test peptide in 200.0 μl of serum-free culture medium (Iscove's medium supplemented with 120.0 units per ml of penicillin G sodium, 120.0 μg per ml of streptomycin sulphate and 0.35 mg per ml of L-glutamine) overnight at 37° C. Subsequently, cells were washed twice with Iscove's medium (without bovine serum) to remove free PSMA peptide. To the cell pellet was added 1.0 ml of complete Iscove's medium (supplemented with fetal bovine serum (10% final)) containing 5.0 μg per ml of brefeldin A (Sigma), 12.5 μg per ml of anisomycin (Sigma) and 5.0 μg per ml of cyclohexamide (Sigma). The samples were incubated for 3.0 hr in a 37° C. CO₂ incubator. The cells were subsequently incubated 30 min on ice prior to two washes with ice-cold PBA (phosphate buffered saline (pH 7.2) containing 2.0% bovine serum). 100.0 μl of PBA containing 5.0 μg of monoclonal antibody BB7.2 was added to each test sample. The reaction was allowed to proceed on ice for 45 min. Cells were then washed three times with ice-cold PBA. The binding of BB7.2 was detected via the addition of 100.0 μl of PBA containing 1.0 μg of goat anti-mouse IgG-Fc fluorescein (FITC) conjugate (BETHYL Laboratories Inc.). After a 30 min incubation on ice, cells were twice washed with ice-cold PBA, and twice with ice-cold PBS (pH 7.2). […] Samples were analyzed by Flow Cytometry. Results were expressed in units of Fluorescence Index (FI), calculated by the equation: […]

[2] = target: T1, membrane-bound HLA-A0201 molecule on T2 …; experiment: T2 cell HLA-A0201 stabilisation at 125.0 µM peptide, BB7.2 staining, flow cytometry
Method: as §1, §2

[3] = target: T1, membrane-bound HLA-A0201 molecule on T2 …; experiment: T2 cell HLA-A0201 stabilisation, BB7.2 staining, flow cytometry; remark: listed apart in the source
Method: as §2, with “The samples were incubated for 3.0 hr in a 37° C. CO₂ incubator. The cells were subsequently incubated 30 min on ice prior to two washes with ice-cold PBA (phosphate buffered saline (pH 7.2) containing 2.0% bovine serum). 100.0 μl of PBA containing 5.0 μg of monoclonal antibody BB7.2 was added to each test sample. The reaction was allowed to proceed on ice for 45 min. Cells were then washed three times with ice-cold PBA.” left out, “Inc.).” for “Inc.). After a 30 min incubation on ice, cells were twice washed with ice-cold PBA, and twice with ice-cold PBS (pH 7.2).”

| Binder | binding result [1] | Fluorescence Index (FI) [2] | other results |
| --- | --- | --- | --- |
| NMKAFLDEL (also called PSMA 57-65) [CLP-329] | no binding |  |  |
| NLNGAGDPL (also called PSMA 260-268) [CLP-331] | no binding |  |  |
| LMYSLVHNL (also called PSMA 469-477) [CLP-333] |  | 2.7 FI |  |
| LLHETDSAV (also called PSMA 4-12) [CLP-326] |  | 0.6 FI |  |
| MMNDQLMFL (also called CPL-336; PSMA 663-671) [CLP-336] |  | 3.7 FI |  |
| LDSVELAHY (Negative control; also called negative control peptide; PSMA 105-113) [CLP-324] |  |  | binding result [3]: no binding (tested: 125.0 µM peptide) |
| PMFKYHLTV (also called PSMA 568-576) [CLP-334] | no binding |  |  |
